Reference: paper PMC5365251 (2017)
Non-standard residues stand in square brackets, D forms with d. Primed or numbered codes have the meaning given here. No end group written: not given here. *: point of attachment. PEG28′ = (PEG)28 spacer, 28 polyethylene glycol repeats; Biotin = O=C1N[C@H]2[C@H](CS[C@H]2CCCCC(=O)*)N1; pY = N[C@@H](Cc1ccc(OP(=O)(O)O)cc1)C(=O)O

Target: T1, LAIR-1 ITIM phosphopeptide (PEG28-ITIM) (Mus musculus)
T1 chain: {Biotin-PEG28′}-DLQEVT[pY]IQLDHH
Assay: SPR

Kd: 9.38 µM
B1: SHP-1 (protein)
chain: not shown
